Experimental data published in patent US9908923 (MEDICAL COLLEGE OF WISCONSIN, dated 2018).
Non-standard residues stand in square brackets, D forms with d. sY = N[C@@H](Cc1ccc(OS(=O)(=O)O)cc1)C(=O)O

Key:
[1] = target: T1, CXCL121 (constitutively monomeric CXCL12 variant, L55C/I58C) (Felis catus (Cat) (Felis silvestris …, UniProt O62657 22-89, engineered disulfide between Cys55 and Cys58)); assay: ΔG = -RT ln Kd at 298 K from the NMR titration
T1 construct: also called CXCL12 locked monomer; LM
Procedure: (§1) Each peptide was acetylated and amidated to create uncharged N- and C-termini, respectively. […] For each titration, the chemical shift change of every residue was used to identify the binding site and calculate the interaction affinity.
(§2) Total peptide additions differed for individual peptide titrations but ranged from 0-160 equivalencies. Spectra were processed using in-house scripts and chemical shift tracking was performed using CARA software. Combined ^1H/^15N chemical shift perturbations were calculated as $((5\ \Delta\delta_H)^2+(\Delta\deltaNH)^2)^{0.5}$, where δ_H and $\deltaNH$ are the amide proton and nitrogen chemical shifts, respectively. Equilibrium dissociation constants (K_d) were determined by non-linear fitting of the combined ^1H/^15N_H chemical shift perturbations as a function of peptide concentration to a single-site quadratic equation. For a given interaction, residues with the largest chemical shift perturbations were fitted individually. The resulting K_d values and their respective fitting errors were then averaged to produce the reported affinity and standard deviation for that interaction.

[2] = target: T2, CXCL122 (constitutively dimeric CXCL12 variant, L36C/A65C) (Homo sapiens (Human), UniProt P48061 22-89, disulfide-locked dimer through the engineered cysteines); assay: ΔG = -RT ln Kd at 298 K from the NMR titration
T2 construct: it is described as a variant of CXCL12 containing L36C/A65C mutations; also called CXCL12 locked dimer; LD
Procedure: as §1, §2

[3] = target: T1, CXCL121 (constitutively monomeric …); assay: NMR 1H-15N HSQC titration of peptide into 15N-labelled chemokine, chemical shift perturbations fitted to a quadratic binding equation, 298 K
Procedure: as §1, §2

[4] = target: T2, CXCL122 (constitutively dimeric CXCL12 …); assay: as above
Procedure: as §1, §2

[5] = target: T2, CXCL122 (constitutively dimeric CXCL12 …); assay: NMR titrations
Procedure: as §1, §2

[6] = target: T3, CXCL12WT (wild type CXCL12) (Homo sapiens (Human), UniProt P48061 22-89); assay: ΔG = -RT ln Kd at 298 K from the NMR titration
T3 construct: Recombinant, expressed and purified as previously described; [U-15N]-labelled in the NMR titrations; In monomer-dimer equilibrium; also called stromal cell-derived factor-1; SDF-1
Procedure: as §1, §2

[7] = target: T3, CXCL12WT (wild type CXCL12); assay: NMR 1H-15N HSQC titration of peptide into 15N-labelled chemokine, chemical shift perturbations fitted to a quadratic binding equation, 298 K
Procedure: as §1, §2

[8] = target: T3, CXCL12WT (wild type CXCL12); assay: NMR titrations
Procedure: as §1, §2

[9] = target: T2, CXCL122 (constitutively dimeric CXCL12 …); assay: ΔG = -RT ln Kd at 298 K from the NMR titration; non-specific binding to sY21 position
Procedure: as §1, §2

[10] = target: T1, CXCL121 (constitutively monomeric …); assay: NMR titrations (Table 1)
Procedure: as §1, §2

[11] = target: T3, CXCL12WT (wild type CXCL12); assay: 125I-CXCL12 radioligand displacement on CXCR4 II/AA (I4A/I6A); displaced tracer 125I-CXCL12

T3 sequence (P48061 22-89 limits assumed): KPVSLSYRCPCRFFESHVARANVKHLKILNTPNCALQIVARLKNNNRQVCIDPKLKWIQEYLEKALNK
T1 sequence (O62657 22-89 L76C/I79C limits assumed): as the sequence (P48061 22-89 limits assumed) above, with L55C, I58C counted along it
T2 sequence (P48061 22-89 L57C/A86C limits assumed): as the sequence (P48061 22-89 limits assumed) above, with L36C, A65C counted along it

Row | ΔG [1] [kcal/mol] | ΔG [2] [kcal/mol] | Kd [3] [µM] | Kd [4] [µM] | fold stronger binding than the unsulfated variant [5] [fold] | fold stronger binding than to CXCL12WT or CXCL121 [5] [fold] | ΔG [6] [kcal/mol] | Kd [7] [µM] | fold higher affinity than the sTyr7 sulfopeptide [8] [fold] | ΔG [9] [kcal/mol] | fold stronger binding than the sTyr7 sulfopeptide [10] [fold] | binding result [11] | Binder
1 | -7.43 | -8.24 | 3.5 | 0.9 | – | – | – | – | – | – | – | – | GMMEGISIYTSDNYTEEMGSGDYDSMKEPAFREENANFNK (range 1-38; Unsulfated recombinant peptide; also called CXCR4 N-terminal domain; CXCR1-38) [CXCR41-38 (first 38 amino acids of CXCR4 preceded by a GlyMet dipeptide tag)]
2 | -3.81 | -5.01 | 1600 | 211 | 4 | 20 | -3.74 | 1800 | – | – | – | – | Ac-SGD[sY]DSM-NH2 (SMILES CSCC[C@H](NC(=O)[C@H](CO)NC(=O)[C@H](CC(=O)O)NC(=O)[C@H](Cc1ccc(OS(=O)(=O)O)cc1)NC(=O)[C@H](CC(=O)O)NC(=O)CNC(=O)[C@H](CO)NC(C)=O)C(N)=O, Synthetic CXCR4 heptapeptide, residues 18-24; also called sulfated Tyr21 peptide) [18SGDsYDSM24 (sTyr21 sulfopeptide)]
3 | -3.5 | -4.74 | 2700 | – | – | – | -3.65 | – | – | – | – | – | Ac-SDNYTEE-NH2 (Synthetic CXCR4 heptapeptide, residues 9-15; also called unsulfated Tyr12 peptide) [9SDNYTEE15 (Tyr12 peptide)]
4 | -4.03 | – | 1100 | – | – | – | -3.71 | 1900 | 2 | -4.6 | ~5 | – | Ac-ISIYTSD-NH2 (Synthetic CXCR4 heptapeptide, residues 4-10; also called CXCR4 Ile4-Asp10 heptapeptide) [4ISIYTSD10 (unsulfated Tyr7 peptide)]
5 | -3.02 | – | 6100 | – | – | – | -3.22 | 4300 | – | -4.65 | – | – | Ac-ISI[sY]TSD-NH2 (SMILES CC[C@H](C)[C@H](NC(C)=O)C(=O)N[C@@H](CO)C(=O)N[C@H](C(=O)N[C@@H](Cc1ccc(OS(=O)(=O)O)cc1)C(=O)N[C@H](C(=O)N[C@@H](CO)C(=O)N[C@@H](CC(=O)O)C(N)=O)[C@@H](C)O)[C@@H](C)CC, Synthetic CXCR4 heptapeptide, residues 4-10) [4ISIsYTSD10 (sTyr7 sulfopeptide)]
6 | -3.85 | -4.2 | 1500 | 831 | – | – | -3.5 | 2700 | – | – | – | – | Ac-SGDYDSM-NH2 (Synthetic CXCR4 heptapeptide, residues 18-24; also called unsulfated Tyr21 peptide) [18SGDYDSM24 (Tyr21 peptide)]
7 | -3.74 | – | 1800 | – | – | – | -4.09 | – | – | -4.87 | – | – | Ac-SDN[sY]TEE-NH2 (SMILES CC(=O)N[C@@H](CO)C(=O)N[C@@H](CC(=O)O)C(=O)N[C@@H](CC(N)=O)C(=O)N[C@@H](Cc1ccc(OS(=O)(=O)O)cc1)C(=O)N[C@H](C(=O)N[C@@H](CCC(=O)O)C(=O)N[C@@H](CCC(=O)O)C(N)=O)[C@@H](C)O, Synthetic CXCR4 heptapeptide, residues 9-15) [9SDNsYTEE15 (sTyr12 sulfopeptide)]
8 | – | – | – | – | – | – | – | – | – | – | – | binds | FLAG-hCXCR4 Ile4Ala/Ile6Ala (receptor, human, UniProt P61073 1-352, looked up, whole, on cells; also called CXCR4 (I4A/I6A); not shown: FLAG tag) MEGASAYTSDNYTEEMGSGDYDSMKEPCFREENANFNKIFLPTIYSIIFLTGIVGNGLVILVMGYQKKLRSMTDKYRLHLSVADLLFVITLPFWAVDAVANWYFGNFLCKAVHVIYTVNLYSSVLILAFISLDRYLAIVHATNSQRPRKLLAEKVVYVGVWIPALLLTIPDFIFANVSEADDRYICDRFYPNDLWVVVFQFQHIMVGLILPGIVILSCYCIIISKLSHSKGHQKRKALKTTVILILAFFACWLPYYIGISIDSFILLEIIKQGCEFENTVHKWISITEALAFFHCCLNPILYAFLGAKFKTSAQHALTSVSRGSSLKILSKGKRGGHSSVSTESESSSFHSS
